± gives the uncertainty stated by the source.
B1: POU domain, class 3, transcription factor 1, residues 247 to 324; numbered along this chain, Q03052 (parent)
chain: EDAPSSDDLEQFAKQFKQRRIKLGFTQADVGLALGTLYGNVFSQTTICRFEALQLSFKNMCKLKPLLNKWLEETDSSS

Variants of: B1
Assay: abundance fitness (aPCA) (normalised: wild type 0, dead -1); higher = more abundant; growth selection in yeast, the domain comes from the species named
Details: Homo sapiens

First: EDAPSSDDLEQFAKQFKQRRIKLGFTQADVGLALGTLYGNEFSQTTICRFEALQLSFKNMCKLKPLLNKWLEETDSSS [V41E]
Second: EDAPSSDDLEQFAKQFKQRRIKLGFTQADVGLALGTLYGNCFSQTTICRFEALQLSFKNMCKLKPLLNKWLEETDSSS [V41C]
The abundance fitness of the first is higher: 0.058 ± 0.051 for the first, -0.142 ± 0.089 for the second.

First: EDAPSSDDLEQFAKQFKQRRIKLGFTQADVGLALGTLYGNFFSQTTICRFEALQLSFKNMCKLKPLLNKWLEETDSSS [V41F]
Second: EDAPSSDDLEQFAKQFKQRRIKLGFTQADVGLALGTLYGNGFSQTTICRFEALQLSFKNMCKLKPLLNKWLEETDSSS [V41G]
The abundance fitness of the first is lower: -0.427 ± 0.24 for the first, 0.016 ± 0.039 for the second.

EDAPSSDDLEQFAKQFKQRRIKLGFTQADVGLALGTLYGNDFSQTTICRFEALQLSFKNMCKLKPLLNKWLEETDSSS [V41D] and EDAPSSDDLEQFAKQFKQRRIKLGFTQADVGLALGTLYGNAFSQTTICRFEALQLSFKNMCKLKPLLNKWLEETDSSS [V41A] are within error of each other in abundance fitness: -0.141 ± 0.1 for the first, -0.018 ± 0.048 for the second.

First: EDAPSSDDLEQFAKQFKQRRIKLGFTQADVGLALGTLSGNVFSQTTICRFEALQLSFKNMCKLKPLLNKWLEETDSSS [Y38S]
Second: EDAPSSDDLEQFAKQFKQRRIKLGFTQADVGLALGTLMGNVFSQTTICRFEALQLSFKNMCKLKPLLNKWLEETDSSS [Y38M]
The abundance fitness of the first is higher: -0.026 ± 0.063 for the first, -0.486 ± 0.1 for the second.

First: EDAPSSDDLEQFAKQFKQRRIKLGFTQADVGLALGTLIGNVFSQTTICRFEALQLSFKNMCKLKPLLNKWLEETDSSS [Y38I]
Second: EDAPSSDDLEQFAKQFKQRRIKLGFTQADVGLALGTLLGNVFSQTTICRFEALQLSFKNMCKLKPLLNKWLEETDSSS [Y38L]
The abundance fitness of the first is higher: 0.108 ± 0.14 for the first, -0.418 ± 0.08 for the second.

EDAPSSDDLEQFAKQFKQRRIKLGFTQADVGLALGTLHGNVFSQTTICRFEALQLSFKNMCKLKPLLNKWLEETDSSS [Y38H] and EDAPSSDDLEQFAKQFKQRRIKLGFTQADVGLALGTLKGNVFSQTTICRFEALQLSFKNMCKLKPLLNKWLEETDSSS [Y38K] are within error of each other in abundance fitness: -0.014 ± 0.17 for the first, -0.153 ± 0.092 for the second.

Going from EDAPSSDDLEQFAKQFKQRRIKLGFTQADVGLALGTLWGNVFSQTTICRFEALQLSFKNMCKLKPLLNKWLEETDSSS [Y38W] to EDAPSSDDLEQFAKQFKQRRIKLGFTQADVGLALGTLAGNVFSQTTICRFEALQLSFKNMCKLKPLLNKWLEETDSSS [Y38A], the abundance fitness rises from -0.43 ± 0.087 to -0.153 ± 0.072.

EDAPSSDDLEQFAKQFKQRRIKLGFTQADVGLALGTLQGNVFSQTTICRFEALQLSFKNMCKLKPLLNKWLEETDSSS [Y38Q] and EDAPSSDDLEQFAKQFKQRRIKLGFTQADVGLALGTLNGNVFSQTTICRFEALQLSFKNMCKLKPLLNKWLEETDSSS [Y38N] are within error of each other in abundance fitness: -0.173 ± 0.094 for the first, 0.019 ± 0.12 for the second.

Going from EDAPSSDDLEQFAKQFKQRRIKLGFTQADVGLALGTLVGNVFSQTTICRFEALQLSFKNMCKLKPLLNKWLEETDSSS [Y38V] to EDAPSSDDLEQFAKQFKQRRIKLGFTQADVGLALGTLPGNVFSQTTICRFEALQLSFKNMCKLKPLLNKWLEETDSSS [Y38P], the abundance fitness falls from -0.031 ± 0.062 to -0.44 ± 0.13.

EDAPSSDDLEQFAKQFKQRRIKLGFTQADVGLALGTLCGNVFSQTTICRFEALQLSFKNMCKLKPLLNKWLEETDSSS [Y38C] and EDAPSSDDLEQFAKQFKQRRIKLGFTQADVGLALGTLFGNVFSQTTICRFEALQLSFKNMCKLKPLLNKWLEETDSSS [Y38F] are within error of each other in abundance fitness: -0.029 ± 0.085 for the first, -0.13 ± 0.12 for the second.

Compared with EDAPSSDDLEQFAKQFKQRRIKLGFTQADVGLALGTLEGNVFSQTTICRFEALQLSFKNMCKLKPLLNKWLEETDSSS [Y38E], EDAPSSDDLEQFAKQFKQRRIKLGFTQADVGLALGTLDGNVFSQTTICRFEALQLSFKNMCKLKPLLNKWLEETDSSS [Y38D] is higher in abundance fitness: -0.332 ± 0.084 for the first, -0.058 ± 0.12 for the second.

EDAPSSDDLEQFAKQFKQRRIKLGFTQADVGLALGTLRGNVFSQTTICRFEALQLSFKNMCKLKPLLNKWLEETDSSS [Y38R] and EDAPSSDDLEQFAKQFKQRRIKLGFTQADVGLALGTLYCNVFSQTTICRFEALQLSFKNMCKLKPLLNKWLEETDSSS [G39C] are within error of each other in abundance fitness: -0.383 ± 0.064 for the first, -0.523 ± 0.15 for the second.

First: EDAPSSDDLEQFAKQFKQRRIKLGFTQADVGLALGTLYVNVFSQTTICRFEALQLSFKNMCKLKPLLNKWLEETDSSS [G39V]
Second: EDAPSSDDLEQFAKQFKQRRIKLGFTQADVGLALGTLYSNVFSQTTICRFEALQLSFKNMCKLKPLLNKWLEETDSSS [G39S]
The abundance fitness of the first is lower: -0.846 ± 0.11 for the first, -0.258 ± 0.074 for the second.

First: EDAPSSDDLEQFAKQFKQRRIKLGFTQADVGLALGTLYRNVFSQTTICRFEALQLSFKNMCKLKPLLNKWLEETDSSS [G39R]
Second: EDAPSSDDLEQFAKQFKQRRIKLGFTQADVGLALGTLYLNVFSQTTICRFEALQLSFKNMCKLKPLLNKWLEETDSSS [G39L]
The abundance fitness of the first is higher: -0.198 ± 0.057 for the first, -0.751 ± 0.12 for the second.

First: EDAPSSDDLEQFAKQFKQRRIKLGFTQADVGLALGTLYHNVFSQTTICRFEALQLSFKNMCKLKPLLNKWLEETDSSS [G39H]
Second: EDAPSSDDLEQFAKQFKQRRIKLGFTQADVGLALGTLYPNVFSQTTICRFEALQLSFKNMCKLKPLLNKWLEETDSSS [G39P]
The abundance fitness of the first is higher: 0.144 ± 0.16 for the first, -0.124 ± 0.089 for the second.

EDAPSSDDLEQFAKQFKQRRIKLGFTQADVGLALGTLYDNVFSQTTICRFEALQLSFKNMCKLKPLLNKWLEETDSSS [G39D] and EDAPSSDDLEQFAKQFKQRRIKLGFTQADVGLALGTLYANVFSQTTICRFEALQLSFKNMCKLKPLLNKWLEETDSSS [G39A] are within error of each other in abundance fitness: -0.192 ± 0.1 for the first, -0.365 ± 0.076 for the second.

Compared with EDAPSSDDLEQFAKQFKQRRIKLGFTQADVGLALGTLYMNVFSQTTICRFEALQLSFKNMCKLKPLLNKWLEETDSSS [G39M], EDAPSSDDLEQFAKQFKQRRIKLGFTQADVGLALGTLYTNVFSQTTICRFEALQLSFKNMCKLKPLLNKWLEETDSSS [G39T] is higher in abundance fitness: -1.04 ± 0.35 for the first, -0.196 ± 0.12 for the second.

In the case of EDAPSSDDLEQFAKQFKQRRIKLGFTQADVGLALGTLYINVFSQTTICRFEALQLSFKNMCKLKPLLNKWLEETDSSS [G39I], the abundance fitness is reported as -0.488 ± 0.33.
